# The RNAGym collection of RNA variant scans (doi:10.1093/molbev/msab373)
# B1: Azoarcus group I ribozyme (parent)
# chain: GUGCCUUGCGCCGGGAAACCACGCAAGGGAUGGUGUCAAAUUCGGCGAAACCUAAGCGCCCGCCCGGGCGUAUGGCAACGCCGAGCCAAGCUUCGGCGCCUGCGCCGAUGAAGGUGUAGAGACUAGACGGCACCCACCUAAGGCAAACGCUAUGGUGAAGGCAUAGUCCAGGGAGUGGCGAAAGUCACACAAACCGG
# Variants of: B1
# Assay: reverse-splicing fitness (ratio to wild type); higher = more active; in vitro selection; Mg2+ level not given
# Outline: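 An in vitro group I ribozyme library with randomized positions was T7-transcribed and gel-purified. In triplicate, 10 pmol RNA in EPPS pH 7.5 was reacted with 50 pmoles of a 30-nt RNA substrate for 1 h at 37 °C across several added MgCl2 levels (1–48 mM), then stopped with EDTA. Products were reverse transcribed from a substrate-complementary primer, PCR-amplified and sequenced (HiSeq 4000). Fitness is a variant's read proportion after selection over that before, normalised to wild type.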
row,Variant,reverse-splicing fitness
1,C82A A111U A120G C150A,0.0106
2,C82A A111U A120G C150U,0.0133
3,C82A A111U A120G C150G,0.00697
4,C82A A111U A120C C150A C169A U176G,0.0108
5,C82A A111U A120C C150A C169A U176C,0.0233
6,C82A A111U A120C C150A C169A U176A,0.0227
7,C82A A111U A120C A145U C169U U176C,0.0156
8,C82A A111U A120C A145U C169U U176A,0.0151
9,C82A A111U A120C A145U C169U U176G,0.00555
10,C82A A111U A120G A145C C169A U176A,0.0141
11,C82A A111U A120G A145C C169A U176G,0.0048
12,C82A A111U A120G A145C C169A U176C,0.00818
13,C82A A111U A120G A145G C150U C169U,0.0104
14,C82A A111U A120G A145G C150U C169A,0.0106
15,C82A A111U A120G A145G C150U C169G,0.0105
16,C82A A111U A120G A145C C150A U176A,0.00932
17,C82A A111U A120G A145C C150A U176G,0.00549
18,C82A A111U A120G A145C C150A U176C,0.0098
19,C82A A111U A120C C150A,0.0118
20,C82A A111U A120C C150G,0.00909
21,C82A A111U A120C C150U,0.0206

row,Variant,reverse-splicing fitness
1,C82A A111U A120G A145U C150A C169A U176C,0.0119
2,C82A A111U A120G A145U C150A C169A U176G,0.00486
3,C82A A111U A120G A145U C150A C169A U176A,0.0146
4,C82A A111U A120C C150U C169A,0.0109
5,C82A A111U A120C C150U C169G,0.00831
6,C82A A111U A120C C150U C169U,0.0121
7,C82A A111U A120C A145U U176A,0.0168
8,C82A A111U A120C A145U U176G,0.00733
9,C82A A111U A120C A145U U176C,0.0276
10,C82A A111U A120G A145C C150U C169U U176A,0.0202
11,C82A A111U A120G A145C C150U C169U U176G,0.00596
12,C82A A111U A120G A145C C150U C169U U176C,0.0127
13,C82A A111U A120C C150G C169G U176G,0.00574
14,C82A A111U A120C C150G C169G U176A,0.00746
15,C82A A111U A120C C150G C169G U176C,0.00529
16,C82A A111U A120C A145U C150U U176G,0.00684
17,C82A A111U A120C A145U C150U U176C,0.0191
18,C82A A111U A120C A145U C150U U176A,0.0138
19,C82A A111U A120G A145G C150G U176C,0.0105
20,C82A A111U A120G A145G C150G U176A,0.00704
21,C82A A111U A120G A145G C150G U176G,0.00604

row,Variant,reverse-splicing fitness
1,C82A A111U A120C C150U C169U U176C,0.0145
2,C82A A111U A120C C150U C169U U176A,0.0156
3,C82A A111U A120C C150U C169U U176G,0.00737
4,C82A A111U A120G A145C C150G C169G U176A,0.00863
5,C82A A111U A120G A145C C150G C169G U176C,0.00725
6,C82A A111U A120G A145C C150G C169G U176G,0.00452
7,C82A A111U A120G A145C U176G,0.00543
8,C82A A111U A120G A145C U176C,0.012
9,C82A A111U A120G A145C U176A,0.0112
10,C82A A111U A120G A145U C169G U176A,0.0119
11,C82A A111U A120G A145U C169G U176C,0.014
12,C82A A111U A120G A145U C169G U176G,0.00437
13,C82A A111U A120G A145U C150U C169U U176A,0.0207
14,C82A A111U A120G A145U C150U C169U U176C,0.0148
15,C82A A111U A120G A145U C150U C169U U176G,0.00524
16,C82A A111U A120G C150A U176A,0.0123
17,C82A A111U A120G C150A U176G,0.0101
18,C82A A111U A120G C150A U176C,0.0188
19,C82A A111U A120C C150U C169A U176C,0.0174
20,C82A A111U A120C C150U C169A U176A,0.0162
21,C82A A111U A120C C150U C169A U176G,0.00841

row,Variant,reverse-splicing fitness
1,C82A A111U A120C A145U C169G U176G,0.00642
2,C82A A111U A120C A145U C169G U176A,0.0204
3,C82A A111U A120C A145U C169G U176C,0.0253
4,C82A A111U A120G A145G C150A C169U,0.00929
5,C82A A111U A120G A145G C150A C169A,0.0112
6,C82A A111U A120G A145G C150A C169G,0.00912
7,C82A A111U A120G A145C C150A C169U U176C,0.0122
8,C82A A111U A120G A145C C150A C169U U176G,0.0059
9,C82A A111U A120G A145C C150A C169U U176A,0.0189
10,C82A A111U A120C C169A U176G,0.00734
11,C82A A111U A120C C169A U176A,0.0222
12,C82A A111U A120C C169A U176C,0.0277
13,C82A A111U A120G A145G C150A C169A U176G,0.00817
14,C82A A111U A120G A145G C150A C169A U176C,0.0248
15,C82A A111U A120G A145G C150A C169A U176A,0.0191
16,C82A A111U A120G A145U C150U U176A,0.0102
17,C82A A111U A120G A145U C150U U176G,0.00672
18,C82A A111U A120G A145U C150U U176C,0.0151
19,C82A A111U A120G A145U C150A C169U U176G,0.00491
20,C82A A111U A120G A145U C150A C169U U176A,0.0193
21,C82A A111U A120G A145U C150A C169U U176C,0.0164
